Reference: patent publication US20030013173A1

What was measured:
[1] = target: Bovine milk β1,4Gal-transferase (Sigma), mainly representing β4Gal-T1 (bovine) (UniProt P08037); assay: cell-based or functional assay
[2] = target: soluble β4Gal-T2 (amino acid residues 31-372 of human UDP-galactose: β-N-acetylglucosamine β-1,4-galactosyltransferase, β4Gal-T2) (human) (UniProt O60909); assay: cell-based or functional assay
soluble β4Gal-T2 (amino acid residues 31-372 of human UDP-galactose: β-N-acetylglucosamine β-1,4-galactosyltransferase, β4Gal-T2) (human), sequence (O60909 31-372): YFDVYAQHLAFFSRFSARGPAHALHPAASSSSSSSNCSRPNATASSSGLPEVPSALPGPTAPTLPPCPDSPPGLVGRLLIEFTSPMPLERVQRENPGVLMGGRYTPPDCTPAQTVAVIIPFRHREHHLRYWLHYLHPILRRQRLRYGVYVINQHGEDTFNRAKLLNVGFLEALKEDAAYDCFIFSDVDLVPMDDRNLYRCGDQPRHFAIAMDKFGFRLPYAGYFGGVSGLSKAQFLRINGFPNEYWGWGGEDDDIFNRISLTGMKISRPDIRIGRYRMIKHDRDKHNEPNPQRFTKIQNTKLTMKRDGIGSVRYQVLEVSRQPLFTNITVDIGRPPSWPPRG

Bovine milk β1,4Gal-transferase (Sigma), mainly representing β4Gal-T1 (bovine), sequence (P08037 78-402 limits assumed): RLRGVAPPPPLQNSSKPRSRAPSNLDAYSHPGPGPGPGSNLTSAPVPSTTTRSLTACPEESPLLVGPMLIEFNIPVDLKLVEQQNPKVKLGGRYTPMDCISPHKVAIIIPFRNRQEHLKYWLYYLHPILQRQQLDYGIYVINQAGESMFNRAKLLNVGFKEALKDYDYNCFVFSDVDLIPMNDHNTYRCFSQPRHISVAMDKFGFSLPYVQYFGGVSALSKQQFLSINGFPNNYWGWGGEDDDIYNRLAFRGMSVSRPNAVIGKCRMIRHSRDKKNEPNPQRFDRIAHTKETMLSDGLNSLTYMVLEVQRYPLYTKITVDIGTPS

concentration of a-lactalbumin to achieve maximum activity with Glc [1]: 0.1 mg/mL
concentration of a-lactalbumin to achieve maximum activity with Glc [2]: 0.4 mg/mL
Substance: α-lactalbumin
